Assay results taken from paper PMC3459974.

Biological target: thioredoxin fused-human artemin protein (Trx-ARTN) (human) (UniProt Q5T4W7)
Assay: SEC; Superdex-200 10/300 column; dimeric Trx-ARTN fractions eluted from the CM-sepharose column, from both refolding methods; calibration with protein standards

stoichiometry N: 2
Substance: thioredoxin fused-human artemin protein (Trx-ARTN) (from UniProt Q5T4W7 40-220) (natural protein)
